What all share (assay): ITC
Test [1] has as its target human HP1α chromoshadow domain (CSD), recombinant (human).
For test [2] the target is unchanged. The source holds these as a separate data set.
Test [3] concerns the target T1, full-length human HP1α WT (hHP1α), recombinant (human, UniProt P45973 1-191).
The target in test [4] is T1, full-length human HP1α WT (hHP1α), …. This is another data set of the same source.

The values below come from PMC11116813 (2024).

One may read the Kd as the free concentration of one partner at which half of the binding sites on the other are occupied at equilibrium, for simple one-to-one binding.

T1 sequence (P45973 whole entry): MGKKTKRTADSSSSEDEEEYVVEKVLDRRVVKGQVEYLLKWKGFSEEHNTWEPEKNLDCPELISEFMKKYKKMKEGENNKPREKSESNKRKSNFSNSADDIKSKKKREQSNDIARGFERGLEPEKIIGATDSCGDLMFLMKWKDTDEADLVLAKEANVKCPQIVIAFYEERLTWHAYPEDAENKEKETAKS
Chain of human HP1α chromoshadow domain (CSD), recombinant (human) (chain, as listed by the source): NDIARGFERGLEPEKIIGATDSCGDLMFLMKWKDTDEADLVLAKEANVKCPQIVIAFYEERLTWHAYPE

With YHTQCQLVPVVEIGISERQNAEQHVTQLMSTEPL (domain or fragment) [human INCENP (160-192), untagged version (Tyr-added), GST removed], in test [1], the equilibrium dissociation constant (Kd) is 39 nM. Further, the Ka in test [2] stood at 2.57e+07 M⁻¹.

B1: human INCENP fragment (121-210) WT used in Fig. 6A (domain or fragment)
chain: YLRRVTRAAAAAAAATMALAAPSSPTPESPTMLTKKPEDNHTQCQLVPVVEIGISERQNAEQHVTQLMSTEPLPRTLSPTPASATAPTSQG
B1: in test [3], the Kd was 55 nM. In addition, the Ka in test [4] turned out to be 1.82e+07 M⁻¹.

B2: human INCENP (121-210) -6His, GST removed (Fig. 2D) (domain or fragment)
chain: LRRVTRAAAAAAAATMALAAPSSPTPESPTMLTKKPEDNHTQCQLVPVVEIGISERQNAEQHVTQLMSTEPLPRTLSPTPASATAPTSQG
Take B2: the Kd in test [3] was found to be 14 nM. The Ka in test [4] was determined as 7.25e+07 M⁻¹.

B3: human Sgo1 fragment (405-494), Tyr-added, GST removed (domain or fragment)
chain: YAKRALKYTDEKETEGSKPTKTPTTTPPETQQSPHLSLKDITNVSLYPVVKIRRLSLSPKKNKASPAVALPKRRCTASVNYKEPTLASKLR
For the molecule B3, in test [4], the Ka was determined as 242000 M⁻¹.

B4: human INCENP (160-210) -6His, GST removed (domain or fragment)
chain: HTQCQLVPVVEIGISERQNAEQHVTQLMSTEPLPRTLSPTPASATAPTSQG
On to B4, for which the Kd in test [1] worked out at 39 nM; in test [3], 25 nM. Besides, the results for the Ka in test [2] and in test [4] were 2.56e+07 M⁻¹ and 3.9e+07 M⁻¹, respectively.

B5: human INCENP (121-270) WT -6His, GST removed (domain or fragment)
chain: LRRVTRAAAAAAAATMALAAPSSPTPESPTMLTKKPEDNHTQCQLVPVVEIGISERQNAEQHVTQLMSTEPLPRTLSPTPASATAPTSQGIPTSDEESTPKKSKARILESITVSSLMATPQDPKGQGVGTGRSASKLRIAQVSPGPRDSP
Take B5: the Ka in test [4] worked out at 2.35e+07 M⁻¹.
